The values below come from article PMC3100782 (Biochemistry, 2011).

The target of assay [1] is fluorescent BACH1-derived peptide (Fluorescein-GGSRSTpSPTFNK-NH2). Nature of the assay: fluorescence polarisation. A general note: Fluorescence polarisation rises when a labelled molecule tumbles more slowly, as on binding a larger partner.
Assay [2] has as its target wild-type BRCA1 BRCT domain (human, UniProt P38398). As to the kind of experiment: fluorescence polarisation.

Non-standard residues stand in square brackets, D forms with d. pS = N[C@@H](COP(=O)(O)O)C(=O)O

“BRCA1 BRCT domain R1699W variant (from UniProt P38398) (domain or fragment)”: the Kd (usually the free concentration of one partner at which half of the binding sites on the other are occupied at equilibrium, for simple one-to-one binding) in assay [1] was above 200 µM.

B1: fluorescent BACH1-derived peptide (Fluorescein-GGSRSTpSPTFNK-NH2) (peptide)
peptide: Fluorescein-GGSRST[pS]PTFNK-NH2
B1 came in with a Kd in assay [2] of 1200 ± 100 nM.
